Laboratory results taken from patent US20070280950A1 (MEDICAL AND BIOLOGICAL LABORATORIES, published 2007).

Experiments:
[1] = molecular target: T1, CD51 (human, UniProt P06756 31-1048); assay: flow cytometry, PBMCs double-stained with antibody #33 plus secondary antibody and PE-labeled CD51 antibody
T1 construct: whole, on cells; Co-precipitated with CD61 by antibody #33 from THP-1 cells; ruled out as the antigen by double staining of PBMCs; also called CD51 (112 kDa)
Procedure: A flow cytometry was performed to determine which of CD51 and CD61, listed as candidate antigen molecules for antibody #33, is the antigen for antibody #33. After PBMCs were stained with antibody #33 and a secondary antibody, they were reacted with a PE-labeled CD51 antibody (BC) or a PE-labeled CD61 antibody (SZ21, BC) at 4° C. for 30 minutes and double-stained, after which flow cytometry was performed.

[2] = molecular target: T2, human CD61 (human, UniProt P05106 27-788); assay: flow cytometry on human cultured cells, 1 µg/ml antibody, FITC anti-mouse IgG secondary; Molt-4 and HUVEC also reactive; antigen later identified as CD61
T2 construct: whole, on cells; Endogenous protein on human cells; In the immunoprecipitation it was solubilised from biotinylated THP-1 cell surfaces with NP-40 and came down together with CD51; also called integrin β3-subunit; integrin β3 chain
Procedure: To identify the antigen of antibody #33, its reactivity to various human cultured cells was examined by flow cytometry. THP-1 activated macrophage-like cells, HPB-ALL, Jurkat, PM-1, Molt-4, KM-3, HL-60, K562, THP-1, U937, 293T, and HUVEC were used as these cells. The THP-1 activated macrophage-like cells were prepared by culturing and differentiating for two days the THP-1 human monocyte-like cell line in RPMI (Sigma) including Streptomycin/Penicillin (Gibco BRL) and 10% FCS (Equitech) into which phorbol ester (PMA) (Sigma) has been added to a final concentration of 5 ng/ml.
Blocking with 1 mg/ml human IgG (Sigma) in FCS was performed for the various human cultured cells (1.0×10⁵ cells) and cells were reacted in a PBS solution comprising 2% FCS (Equitech) antibody #33 at a final concentration of 1 μg/ml at 4° C. for 30 minutes. After washing twice with PBS comprising 2% FCS (Equitech), cells were further reacted with an FITC-labeled anti-mouse IgG secondary antibody (MBL) at 4° C. for 30 minutes. Samples were further washed twice with PBS containing 2% FCS (Equitech) and analyzed with a flow cytometer (ALTRA BC).

T2 sequence (P05106 27-788): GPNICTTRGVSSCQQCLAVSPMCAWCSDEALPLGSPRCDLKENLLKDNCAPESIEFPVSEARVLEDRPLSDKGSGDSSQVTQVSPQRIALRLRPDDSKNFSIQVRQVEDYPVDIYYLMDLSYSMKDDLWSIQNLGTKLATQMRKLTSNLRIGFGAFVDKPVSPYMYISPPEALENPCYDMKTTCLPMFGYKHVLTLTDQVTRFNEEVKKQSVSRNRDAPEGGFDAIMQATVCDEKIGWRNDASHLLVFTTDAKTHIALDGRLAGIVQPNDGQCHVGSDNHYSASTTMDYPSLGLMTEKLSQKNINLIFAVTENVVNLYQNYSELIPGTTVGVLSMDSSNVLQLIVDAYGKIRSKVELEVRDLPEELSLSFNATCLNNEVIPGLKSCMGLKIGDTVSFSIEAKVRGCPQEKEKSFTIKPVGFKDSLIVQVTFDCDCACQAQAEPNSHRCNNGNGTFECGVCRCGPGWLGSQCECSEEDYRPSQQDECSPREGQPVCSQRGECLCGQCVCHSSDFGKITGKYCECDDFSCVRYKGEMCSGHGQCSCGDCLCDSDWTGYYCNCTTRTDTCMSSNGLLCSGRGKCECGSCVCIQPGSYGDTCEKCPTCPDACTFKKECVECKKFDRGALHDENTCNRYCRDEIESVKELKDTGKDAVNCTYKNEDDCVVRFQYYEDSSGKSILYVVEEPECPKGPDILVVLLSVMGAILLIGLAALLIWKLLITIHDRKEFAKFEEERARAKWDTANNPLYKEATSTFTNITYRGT
T1 sequence (P06756 31-1048): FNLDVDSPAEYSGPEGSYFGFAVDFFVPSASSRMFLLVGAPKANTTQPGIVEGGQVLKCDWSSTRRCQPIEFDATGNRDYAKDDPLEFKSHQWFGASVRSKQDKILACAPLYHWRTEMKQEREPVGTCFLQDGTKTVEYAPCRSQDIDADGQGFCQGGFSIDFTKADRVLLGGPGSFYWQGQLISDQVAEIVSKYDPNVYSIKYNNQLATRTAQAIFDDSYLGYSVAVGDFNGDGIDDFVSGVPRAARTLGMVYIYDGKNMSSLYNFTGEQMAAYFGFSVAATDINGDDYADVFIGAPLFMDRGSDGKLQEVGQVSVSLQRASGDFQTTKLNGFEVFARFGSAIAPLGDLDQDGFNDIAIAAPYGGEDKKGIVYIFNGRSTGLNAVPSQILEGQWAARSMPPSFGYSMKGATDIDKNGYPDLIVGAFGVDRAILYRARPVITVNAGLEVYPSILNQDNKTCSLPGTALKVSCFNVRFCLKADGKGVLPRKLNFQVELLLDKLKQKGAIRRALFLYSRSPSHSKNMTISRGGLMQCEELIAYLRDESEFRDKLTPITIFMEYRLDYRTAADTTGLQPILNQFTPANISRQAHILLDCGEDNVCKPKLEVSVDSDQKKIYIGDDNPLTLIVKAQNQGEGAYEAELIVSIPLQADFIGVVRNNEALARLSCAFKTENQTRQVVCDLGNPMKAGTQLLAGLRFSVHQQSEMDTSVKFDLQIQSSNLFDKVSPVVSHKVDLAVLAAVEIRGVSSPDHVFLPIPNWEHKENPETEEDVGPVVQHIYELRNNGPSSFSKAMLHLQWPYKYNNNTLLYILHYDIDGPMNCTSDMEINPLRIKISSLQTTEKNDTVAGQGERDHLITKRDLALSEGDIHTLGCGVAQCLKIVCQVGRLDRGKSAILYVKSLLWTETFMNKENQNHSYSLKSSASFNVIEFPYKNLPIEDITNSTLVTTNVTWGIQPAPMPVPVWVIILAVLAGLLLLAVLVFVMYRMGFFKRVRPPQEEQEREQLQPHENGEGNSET

B1: antibody #33 (antibody, IgG2a, V domains shown)
VH: EVQLLQSGPELVKPGASMKISCKASGYSFTGYTMNWVKQSHGKNLEWIGLINPYSGVTTYNQRFKGKATLTVDKSSSTAYMELLSLTSEDSAVYYCATRGALGQAYYFDYWGQGTTLTVSS
VL: QIVLTQSPVIMSASPGERVTLTCSASSSVNYMHWYQQKSGTSPKRWIYDTSKLASGVPPRFSGSGFGTSYSLTITNMEAEDAATYYCQQWSSKPPTFGFGTKLELQR
notes: also called monoclonal antibody #33; mouse anti-human CD61 antibody
B1: no binding [1]; binds [2].
